Laboratory results taken from the nanobody polyreactivity screen of Harvey et al. (2022).

Experiment: yeast display, Sf9 membrane polyspecificity reagent, FACS + sequencing; frameworks hold sequencing errors
Summary of the method: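 Sorting gates, low and high (top ~1%), were placed on anti-HA fluorescence to track expression and on streptavidin fluorescence to track reagent binding. A clone's polyreactivity label is taken from the gate it came out of. The reagent was 10% biotinylated, detergent-solubilized Sf9 membrane, applied for 1 hour at 4 °C to galactose-induced yeast display cells.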
With “QVQLVESGGGLVQAGGSLRLSCAASGSIFGRYGMGWYRQAPGKERELVAAITSGTRTNYADSVKGRFTISRDNAKNTVYLQMNSLKPEDTAVYYCNALRLRGNYEYGYWGHGTQVTVSS” the “polyreactivity (PSR sort gate)” value was “low polyreactivity”. In the case of “QVQLVESGGGLVQAGGSLRLSCAASGFTFSTYAMGWYRQAPGKERELVAAISFSGGSTYYADSVKGRFTISRDNAKNTVYLQMNSLKPEDTAVYYCNAVFGYRLPGNYWGQGTQVTVSS”, the “polyreactivity (PSR sort gate)” value is reported as “low polyreactivity”. For “QVQLVESGGGLVQAGGSLRISCAASGFIFKKNAMGWYRQAPGKERELVAAITSSGGSTYYADSVKGRFTISRDNAKNTVYFQMNSLKPEDSAVYYCARDKEQQGYRLFGYWGQGTQVTVSS”, the “polyreactivity (PSR sort gate)” value was “high polyreactivity”. For “QVQLVESGGGLVQAGGSLRLSCAASGSTFYPYAMGWYRQAPGKERELVAAITSGGRTYYADSVKGRFTISRDNAKNTVYLQMNSLKPEDTAVYYCAALQYRRLRDYRHDYWGQGTQVTVSS”, the “polyreactivity (PSR sort gate)” value was “high polyreactivity”. For “QVQLVESGGGLVQAGGSLRLICAASGRIFVKYAIGWYRQAPGKERELVASITSGGRTNYADSVKGRFTISPDIAKNTVYLQMNSLKPEDTAVYYCAAVWRTASTQYYYWGQGTQVTVSS”, the “polyreactivity (PSR sort gate)” value was “high polyreactivity”. In the case of “QVQLVESVGGLVQAGGSLRLSCSASGLIFYDYDMGWYRQAPGKERELVAAISNDASTYYAHSVKGRFTISRDNAKNTVYFQMNSLKTEDTAVYFCAAEPYVFGLSSKPFWYNYWGQGTQVTVSS”, the “polyreactivity (PSR sort gate)” value is reported as “low polyreactivity”. With “QVQLVESGGGLVQAGGSLRLSCAASGSIFRAYAMGWYRQAPGKERELVAAISWGGGSTSYADSVKGRFTISRDNAKNTVYLQMNSLKPEDTAVYYCNKVSLSKRRDYYWGQGTQVTVSS” the “polyreactivity (PSR sort gate)” value was “high polyreactivity”. With “QVQLVESGGGLVQAGGSLRLSCAASGFIFGYNAMGWYRQAPGKERELVAAITSRGDRTYYADSVKGRFTISRDNAKNTVYLQMNSLKPEDTAVYYCAKATRGYRSPYGSIGYYYWGLGTQVTVSS” the “polyreactivity (PSR sort gate)” value was “high polyreactivity”. In the case of “QVQLVESGGGLVQSGGSLRLSCAASGFTFYFNAMGWYRPAPGKERELVAAIRWSGGNTYYADSVKGRFTISRDNAKNTVYLQMNSLKPEDTAVYYCNKDPWHDTYSVKEYDYWGQGTQVTVSS”, the “polyreactivity (PSR sort gate)” value is reported as “low polyreactivity”. For “QVQLVESGGGLVQAGGSRRLSCAASGRTFDSYTMGWYRQAPGKERELVADITFTGGSTYYADSVKGRFTISRDNAKNTVYLQMNSLKPDDTAVYYCNADREYKWYFRYDYWGQGTQVTVSS”, the “polyreactivity (PSR sort gate)” value was “low polyreactivity”. With “QVQLVESGGGLVQAGGSLRLSCAASGSTFVNNAMGWYIQAPGKERELVAAIRSSDGRTYYADSVKGRFTISRDNAKNTVYLQMNSLKPEDTAVYYCATAVGTKYRTRIFEYYYWGQGTQVTVSS” the “polyreactivity (PSR sort gate)” value was “high polyreactivity”. For “QVQLVESGGRLVQAGGSLRLSCAASGSTYAMGWYRQAPGKERELVASITSRGGSTYYADSVKGRFTISRDNAKNTVYLQMNSLKPEDTAVYYCAARWYFSYIGYDYWGQGTQVTVSS”, the “polyreactivity (PSR sort gate)” value was “high polyreactivity”. With “QVQLVESGGGLVQAGGSLRLSCAASVRTFGQNTMGWYIQAPGKEREFVAAIDFNGGSTYYADSVKGRFTISRDNAKNTVYLQMNSLKPEDTAVYYCAADIYFYYYGSYDYWGQGTQVTVSS” the “polyreactivity (PSR sort gate)” value was “low polyreactivity”. For “QVQHVESGGGLVQAGGSLRLSCAASGRIFGKNDMGWYRQAPGNERELVAAITTSGGSTYYADSVKGRFTISRYNAKNTVYLQMNSLKPEDTAVYYCNAAFQNKGYIRKYKYDYWGQGTQVTVSS”, the “polyreactivity (PSR sort gate)” value was “low polyreactivity”. In the case of “QVQLVESGGGLVQAGGSLRLSWAASGSIFVHNTMGWYRQAPGKERELVAAITRSVGRTYFADSVKGRFTISRDNAKNTVYLQMTSLQPADTAVYYCAKPASKGYYWGQGTQVTVSS”, the “polyreactivity (PSR sort gate)” value is reported as “high polyreactivity”. For “QVQLVESGGGLVQAGGSLRLSCAASGFTFYGYAMGRYRQAPGKERELVAAITFRGDRTYYADSVKGRFTISRDNAKNTVYLQMNSLKPEDTAVYYCAAERPSGWYSDLSLYIGRRGYWGQGTQVTVSS”, the “polyreactivity (PSR sort gate)” value was “low polyreactivity”. With “QVQLVESGGGLVQAGGTLRLSCAATGSTFNINAMGWYRQAPGKERELFAAITRGGTNYADSVKGRFTISRDNAKNTVYLQMNSLKPEDTAVYYCAARGTGGSVKVTSLQQGGYWGQGTQVTVSS” the “polyreactivity (PSR sort gate)” value was “high polyreactivity”.
